Laboratory results as given in patent US20120172293A1 (Takeda / Millennium, published 2012).
Starred links: 1 amine or outer side, 2 acyl side, 3 side chain; linkers in the order of their positions; H or OH if unused. Non-standard residues stand in square brackets, D forms with d. Primed or numbered codes have the meaning given here. *: point of attachment. Ser(Me)(3) = methylserine, COC[C@H](N[*:1])C(=O)[*:2]; Ser(Me)″ = O-methylserine, COC[C@H](N[*:1])C(=O)[*:2]; Cha = N[C@@H](CC1CCCCC1)C(=O)O; Isobutyryl = CC(C)C(=O)*; NMeA = CN[C@@H](C)C(=O)O; Nva = CCC[C@H](N)C(=O)O; Abu = CC[C@H](N)C(=O)O; Nleu = CC(C)CNCC(=O)O; Aib = CC(C)(N)C(=O)O; Bz = O=C(c1ccccc1)*

Tests used:
[1] = target: human Y2 receptor (human) (UniProt P49146); experiment: cell-based or functional assay
[2] = target: human Y2 receptor (human) (UniProt P49146); experiment: RBA: [125I]-PYY displacement, hY2R/CHO membranes

human Y2 receptor (human), sequence (P49146 whole entry): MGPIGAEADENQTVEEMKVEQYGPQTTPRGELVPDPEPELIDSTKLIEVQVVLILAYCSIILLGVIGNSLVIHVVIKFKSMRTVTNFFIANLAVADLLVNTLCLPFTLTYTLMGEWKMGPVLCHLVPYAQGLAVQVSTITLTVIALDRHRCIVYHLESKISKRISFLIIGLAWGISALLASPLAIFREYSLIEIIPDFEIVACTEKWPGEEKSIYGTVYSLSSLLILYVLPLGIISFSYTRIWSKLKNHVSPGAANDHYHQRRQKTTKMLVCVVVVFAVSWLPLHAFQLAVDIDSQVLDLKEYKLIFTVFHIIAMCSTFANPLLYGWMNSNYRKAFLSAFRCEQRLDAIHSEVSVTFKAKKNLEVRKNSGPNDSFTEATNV

GBA EC50 Ratio (vs PYY(3-36)), [35S]GTPγS [1] | IC50 Ratio (vs PYY(3-36)) [2] | Molecule
1.3 | 1.8 | Ac-[D-Pro24, Pya(4)26, Cha27,36, Aib28,31, Lys30]-PYY(23-36) (peptide)
1.6 | 2.5 | Ac-[Hse23, D-Pro24, Cha27,28,36, Aib31]-PYY(23-36) (peptide)
17 | 13 | Ac-[Iva23, D-Pro24, Cha27,28,36, Aib31]-PYY(23-36) (peptide)
1.3 | 0.92 | Ac-[Lys(Me2)23, D-Pro24, Cha27,28,36, Aib31]-PYY(23-36) (peptide)
3.4 | 4 | N-4-Pyridiniyl-[Pic(4)23, D-Pro24, Cha27,28,36, Aib31]-PYY(23-36) (peptide)
5 | 7.3 | Ac-[Hyp23, D-Pro24, Cha27,28,36, Aib31]-PYY(23-36) (peptide)
2.4 | 5.8 | [N(iBu)Gly23, D-Pro24, Cha27,28,36, Aib31]-PYY(23-36) (peptide)
2.5 | 5.4 | [Lys(Ac)23, D-Pro24, Cha27,28,36, Aib31]-PYY(23-36) (peptide)
13 | 50 | Ac-[Ala26, Ile28,31, Arg(Me)35]-PYY(22-36) (peptide)
8.7 | 18 | Bz-R[Ser(Me)″][Cha][Cha]NL[Aib]TRQR[Cha]-NH2 (SMILES COC[C@H](NC(=O)[C@H](CCCNC(=N)N)NC(=O)c1ccccc1)C(=O)N[C@@H](CC1CCCCC1)C(=O)N[C@@H](CC1CCCCC1)C(=O)N[C@@H](CC(N)=O)C(=O)N[C@@H](CC(C)C)C(=O)NC(C)(C)C(=O)N[C@H](C(=O)N[C@@H](CCCNC(=N)N)C(=O)N[C@@H](CCC(N)=O)C(=O)N[C@@H](CCCNC(=N)N)C(=O)N[C@@H](CC1CCCCC1)C(N)=O)[C@@H](C)O) [Benzoyl-[Ser(Me)26, Cha27,28,36, Aib31]-PYY(25-36)]
5.9 | 12 | Ac-F[dP]R[Abu][Cha][Cha]NL[Aib]TRQR[Cha]-NH2 (SMILES CC[C@H](NC(=O)[C@H](CCCNC(=N)N)NC(=O)[C@H]1CCCN1C(=O)[C@H](Cc1ccccc1)NC(C)=O)C(=O)N[C@@H](CC1CCCCC1)C(=O)N[C@@H](CC1CCCCC1)C(=O)N[C@@H](CC(N)=O)C(=O)N[C@@H](CC(C)C)C(=O)NC(C)(C)C(=O)N[C@H](C(=O)N[C@@H](CCCNC(=N)N)C(=O)N[C@@H](CCC(N)=O)C(=O)N[C@@H](CCCNC(=N)N)C(=O)N[C@@H](CC1CCCCC1)C(N)=O)[C@@H](C)O) [Ac-[Phe23, D-Pro24, Abu26, Cha27,28,36, Aib31]-PYY(23-36)]
8.4 | 20 | Ac-S[Nleu]RH[Cha][Cha]NL[Aib]TRQR[Cha]-NH2 (SMILES CC(=O)N[C@@H](CO)C(=O)N(CC(=O)N[C@@H](CCCNC(=N)N)C(=O)N[C@@H](Cc1c[nH]cn1)C(=O)N[C@@H](CC1CCCCC1)C(=O)N[C@@H](CC1CCCCC1)C(=O)N[C@@H](CC(N)=O)C(=O)N[C@@H](CC(C)C)C(=O)NC(C)(C)C(=O)N[C@H](C(=O)N[C@@H](CCCNC(=N)N)C(=O)N[C@@H](CCC(N)=O)C(=O)N[C@@H](CCCNC(=N)N)C(=O)N[C@@H](CC1CCCCC1)C(N)=O)[C@@H](C)O)CC(C)C) [Ac-[N(iBu)Gly24, Cha27,28,36, Aib31]-PYY(23-36)]
21 | 19 | Bz-RN[Cha][Cha]NL[Aib]TRQR[Cha]-NH2 (SMILES CC(C)C[C@H](NC(=O)[C@H](CC(N)=O)NC(=O)[C@H](CC1CCCCC1)NC(=O)[C@H](CC1CCCCC1)NC(=O)[C@H](CC(N)=O)NC(=O)[C@H](CCCNC(=N)N)NC(=O)c1ccccc1)C(=O)NC(C)(C)C(=O)N[C@H](C(=O)N[C@@H](CCCNC(=N)N)C(=O)N[C@@H](CCC(N)=O)C(=O)N[C@@H](CCCNC(=N)N)C(=O)N[C@@H](CC1CCCCC1)C(N)=O)[C@@H](C)O) [Benzoyl-[Asn26, Cha27,28,36, Aib31]-PYY(25-36)]
35 | 49 | Isobutyryl-R[Abu][Cha]SNL[Aib]TRQR[Cha]-NH2 (SMILES CC[C@H](NC(=O)[C@H](CCCNC(=N)N)NC(=O)C(C)C)C(=O)N[C@@H](CC1CCCCC1)C(=O)N[C@@H](CO)C(=O)N[C@@H](CC(N)=O)C(=O)N[C@@H](CC(C)C)C(=O)NC(C)(C)C(=O)N[C@H](C(=O)N[C@@H](CCCNC(=N)N)C(=O)N[C@@H](CCC(N)=O)C(=O)N[C@@H](CCCNC(=N)N)C(=O)N[C@@H](CC1CCCCC1)C(N)=O)[C@@H](C)O) [Isobutanoyl-[Abu26, Cha27,36, Ser28, Aib31]-PYY(25-36)]
3.8 | 5.2 | Ac-[Ser(Me)(3)][dP]R[Abu][Cha][Cha]NL[Aib]TRQR[Cha]-NH2 (SMILES CC[C@H](NC(=O)[C@H](CCCNC(=N)N)NC(=O)[C@H]1CCCN1C(=O)[C@H](COC)NC(C)=O)C(=O)N[C@@H](CC1CCCCC1)C(=O)N[C@@H](CC1CCCCC1)C(=O)N[C@@H](CC(N)=O)C(=O)N[C@@H](CC(C)C)C(=O)NC(C)(C)C(=O)N[C@H](C(=O)N[C@@H](CCCNC(=N)N)C(=O)N[C@@H](CCC(N)=O)C(=O)N[C@@H](CCCNC(=N)N)C(=O)N[C@@H](CC1CCCCC1)C(N)=O)[C@@H](C)O) [Ac-[Ser(Me)23, D-Pro24, Abu26, Cha27,28,36, Aib31]-PYY(23-36)]
8.6 | 13 | Bz-RH[Nva][Cha]NL[Aib]TRQR[Cha]-NH2 (SMILES CCC[C@H](NC(=O)[C@H](Cc1c[nH]cn1)NC(=O)[C@H](CCCNC(=N)N)NC(=O)c1ccccc1)C(=O)N[C@@H](CC1CCCCC1)C(=O)N[C@@H](CC(N)=O)C(=O)N[C@@H](CC(C)C)C(=O)NC(C)(C)C(=O)N[C@H](C(=O)N[C@@H](CCCNC(=N)N)C(=O)N[C@@H](CCC(N)=O)C(=O)N[C@@H](CCCNC(=N)N)C(=O)N[C@@H](CC1CCCCC1)C(N)=O)[C@@H](C)O) [Benzoyl-[Nva27, Cha28,36, Aib31]-PYY(25-36)]
5.1 | 6.1 | Ac-[dS][NMeA]RH[Cha][Cha]NL[Aib]TRQR[Cha]-NH2 (SMILES CC(=O)N[C@H](CO)C(=O)N(C)[C@@H](C)C(=O)N[C@@H](CCCNC(=N)N)C(=O)N[C@@H](Cc1c[nH]cn1)C(=O)N[C@@H](CC1CCCCC1)C(=O)N[C@@H](CC1CCCCC1)C(=O)N[C@@H](CC(N)=O)C(=O)N[C@@H](CC(C)C)C(=O)NC(C)(C)C(=O)N[C@H](C(=O)N[C@@H](CCCNC(=N)N)C(=O)N[C@@H](CCC(N)=O)C(=O)N[C@@H](CCCNC(=N)N)C(=O)N[C@@H](CC1CCCCC1)C(N)=O)[C@@H](C)O) [Ac-[D-Ser23, MeAla24, Cha27,28,36, Aib31]-PYY(23-36)]
13 | 19 | Isobutyryl-R[Abu][Cha]HNL[Aib]TRQR[Cha]-NH2 (SMILES CC[C@H](NC(=O)[C@H](CCCNC(=N)N)NC(=O)C(C)C)C(=O)N[C@@H](CC1CCCCC1)C(=O)N[C@@H](Cc1c[nH]cn1)C(=O)N[C@@H](CC(N)=O)C(=O)N[C@@H](CC(C)C)C(=O)NC(C)(C)C(=O)N[C@H](C(=O)N[C@@H](CCCNC(=N)N)C(=O)N[C@@H](CCC(N)=O)C(=O)N[C@@H](CCCNC(=N)N)C(=O)N[C@@H](CC1CCCCC1)C(N)=O)[C@@H](C)O) [Isobutanoyl-[Abu26, Cha27,36, His28, Aib31]-PYY(25-36)]
4.3 | 5.6 | Bz-RHH[Cha]NL[Aib]TRQR[Cha]-NH2 (SMILES CC(C)C[C@H](NC(=O)[C@H](CC(N)=O)NC(=O)[C@H](CC1CCCCC1)NC(=O)[C@H](Cc1c[nH]cn1)NC(=O)[C@H](Cc1c[nH]cn1)NC(=O)[C@H](CCCNC(=N)N)NC(=O)c1ccccc1)C(=O)NC(C)(C)C(=O)N[C@H](C(=O)N[C@@H](CCCNC(=N)N)C(=O)N[C@@H](CCC(N)=O)C(=O)N[C@@H](CCCNC(=N)N)C(=O)N[C@@H](CC1CCCCC1)C(N)=O)[C@@H](C)O) [Benzoyl-[His27, Cha28,36, Aib31]-PYY(25-36)]
30 | 45 | Isobutyryl-R[Abu][Cha]QNL[Aib]TRQR[Cha]-NH2 (SMILES CC[C@H](NC(=O)[C@H](CCCNC(=N)N)NC(=O)C(C)C)C(=O)N[C@@H](CC1CCCCC1)C(=O)N[C@@H](CCC(N)=O)C(=O)N[C@@H](CC(N)=O)C(=O)N[C@@H](CC(C)C)C(=O)NC(C)(C)C(=O)N[C@H](C(=O)N[C@@H](CCCNC(=N)N)C(=O)N[C@@H](CCC(N)=O)C(=O)N[C@@H](CCCNC(=N)N)C(=O)N[C@@H](CC1CCCCC1)C(N)=O)[C@@H](C)O) [Isobutanoyl-[Abu26, Cha27,36, Gln28, Aib31]-PYY(25-36)]
4 | 6.9 | Ac-[Abu][dP]R[Abu][Cha][Cha]NL[Aib]TRQR[Cha]-NH2 (SMILES CC[C@H](NC(=O)[C@H](CCCNC(=N)N)NC(=O)[C@H]1CCCN1C(=O)[C@H](CC)NC(C)=O)C(=O)N[C@@H](CC1CCCCC1)C(=O)N[C@@H](CC1CCCCC1)C(=O)N[C@@H](CC(N)=O)C(=O)N[C@@H](CC(C)C)C(=O)NC(C)(C)C(=O)N[C@H](C(=O)N[C@@H](CCCNC(=N)N)C(=O)N[C@@H](CCC(N)=O)C(=O)N[C@@H](CCCNC(=N)N)C(=O)N[C@@H](CC1CCCCC1)C(N)=O)[C@@H](C)O) [Ac-[Abu23, D-Pro24, Abu26, Cha27,28,36, Aib31]-PYY(23-36)]
